Assay results from US20260209293A1 (Novo Nordisk, published 2026).
Values belong to the binder of their own block, whether it stands above or below them. *1 amine or outer side, *2 acyl side, *3 side chain or, on linkers, in order; H or OH if unused. The star is where a group is joined. C18 diacid = O=C(O)CCCCCCCCCCCCCCCCC(=O)*; γGlu = O=C(O)[C@H](CCC(=O)[*:2])N[*:1]

Columns and labels:
[1] = biological target: T1, human amylin-3(a) receptor (human, UniProt P30988 25-474; O60896 24-148); test: cell-based or functional assay
T1 sequence (looked up) 1: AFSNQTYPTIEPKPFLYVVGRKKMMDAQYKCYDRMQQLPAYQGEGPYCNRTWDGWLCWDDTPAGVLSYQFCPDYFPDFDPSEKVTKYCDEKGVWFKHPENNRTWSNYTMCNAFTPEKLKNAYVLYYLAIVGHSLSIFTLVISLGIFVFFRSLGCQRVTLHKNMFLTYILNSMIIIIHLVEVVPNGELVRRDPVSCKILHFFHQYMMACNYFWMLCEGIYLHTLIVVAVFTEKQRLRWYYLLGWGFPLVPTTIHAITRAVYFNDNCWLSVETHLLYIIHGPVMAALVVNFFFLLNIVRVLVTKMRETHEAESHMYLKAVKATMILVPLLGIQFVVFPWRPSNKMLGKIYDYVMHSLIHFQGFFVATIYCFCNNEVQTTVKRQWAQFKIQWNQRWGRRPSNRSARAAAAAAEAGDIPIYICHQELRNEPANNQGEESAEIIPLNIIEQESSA
T1 sequence (looked up) 2: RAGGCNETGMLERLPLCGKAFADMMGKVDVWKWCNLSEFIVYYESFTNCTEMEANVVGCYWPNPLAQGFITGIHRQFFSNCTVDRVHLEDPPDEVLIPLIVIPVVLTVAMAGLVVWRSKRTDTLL

[2] = biological target: T2, human calcitonin receptor (a) (human, UniProt P30988 25-474); test: cell-based or functional assay
T2 sequence (looked up): T1 sequence (looked up) 1

B1: N^1-[(4S)-4-carboxy-4-(17-carboxyheptadecanoylamino)butanoyl]-[Ala1,Ser2,Glu3, Leu4, Ser5,Ala7,Gln8,Glu14, His17, Pro25, Pro28, Pro29,Asp31,Glu35, … (peptide)
peptide: {C18 diacid-γGlu}-ASELSTAQTQRLAEFLHHFGPILPPTDVGSETP-NH2
SMILES: CC[C@H](C)[C@H](NC(=O)[C@@H]1CCCN1C(=O)CNC(=O)[C@H](Cc1ccccc1)NC(=O)[C@H](Cc1c[nH]cn1)NC(=O)[C@H](Cc1c[nH]cn1)NC(=O)[C@H](CC(C)C)NC(=O)[C@H](Cc1ccccc1)NC(=O)[C@H](CCC(=O)O)NC(=O)[C@H](C)NC(=O)[C@H](CC(C)C)NC(=O)[C@H](CCCNC(=N)N)NC(=O)[C@H](CCC(N)=O)NC(=O)[C@@H](NC(=O)[C@H](CCC(N)=O)NC(=O)[C@H](C)NC(=O)[C@@H](NC(=O)[C@H](CO)NC(=O)[C@H](CC(C)C)NC(=O)[C@H](CCC(=O)O)NC(=O)[C@H](CO)NC(=O)[C@H](C)NC(=O)CC[C@H](NC(=O)CCCCCCCCCCCCCCCCC(=O)O)C(=O)O)[C@@H](C)O)[C@@H](C)O)C(=O)N[C@@H](CC(C)C)C(=O)N1CCC[C@H]1C(=O)N1CCC[C@H]1C(=O)N[C@H](C(=O)N[C@@H](CC(=O)O)C(=O)N[C@H](C(=O)NCC(=O)N[C@@H](CO)C(=O)N[C@@H](CCC(=O)O)C(=O)N[C@H](C(=O)N1CCC[C@H]1C(N)=O)[C@@H](C)O)C(C)C)[C@@H](C)O
hAmyR3 potency, EC50 (pM); CRE-luciferase reporter in BHK cells [1]: 5.2 pM
hCalcR potency, EC50 (pM); CRE-luciferase reporter in BHK cells [2]: 3.08 pM

B3: N^1-[(4S)-4-carboxy-4-(17-carboxyheptadecanoylamino)butanoyl]-[Ala1,Ser2,His3,Leu4,Ser5,Leu7,Gln8,Glu14,His17,Asp21,Pro22,Pro27,Asp31, Pro34,Asp35, … (peptide)
peptide: {C18 diacid-γGlu}-ASHLSTLQTQRLAEFLHHSSDPFGAIPSSTDVGPDTP-NH2
SMILES: CC[C@H](C)[C@H](NC(=O)[C@H](C)NC(=O)CNC(=O)[C@H](Cc1ccccc1)NC(=O)[C@@H]1CCCN1C(=O)[C@H](CC(=O)O)NC(=O)[C@H](CO)NC(=O)[C@H](CO)NC(=O)[C@H](Cc1c[nH]cn1)NC(=O)[C@H](Cc1c[nH]cn1)NC(=O)[C@H](CC(C)C)NC(=O)[C@H](Cc1ccccc1)NC(=O)[C@H](CCC(=O)O)NC(=O)[C@H](C)NC(=O)[C@H](CC(C)C)NC(=O)[C@H](CCCNC(=N)N)NC(=O)[C@H](CCC(N)=O)NC(=O)[C@@H](NC(=O)[C@H](CCC(N)=O)NC(=O)[C@H](CC(C)C)NC(=O)[C@@H](NC(=O)[C@H](CO)NC(=O)[C@H](CC(C)C)NC(=O)[C@H](Cc1c[nH]cn1)NC(=O)[C@H](CO)NC(=O)[C@H](C)NC(=O)CC[C@H](NC(=O)CCCCCCCCCCCCCCCCC(=O)O)C(=O)O)[C@@H](C)O)[C@@H](C)O)C(=O)N1CCC[C@H]1C(=O)N[C@@H](CO)C(=O)N[C@@H](CO)C(=O)N[C@H](C(=O)N[C@@H](CC(=O)O)C(=O)N[C@H](C(=O)NCC(=O)N1CCC[C@H]1C(=O)N[C@@H](CC(=O)O)C(=O)N[C@H](C(=O)N1CCC[C@H]1C(N)=O)[C@@H](C)O)C(C)C)[C@@H](C)O
hAmyR3 potency, EC50 (pM); CRE-luciferase reporter in BHK cells [1]: 1.69 pM
hCalcR potency, EC50 (pM); CRE-luciferase reporter in BHK cells [2]: 1.74 pM

B5: N^1-[(4S)-4-carboxy-4-(17-carboxyheptadecanoylamino)butanoyl]-[Ala1,Ser2,His3,Leu4,Ser5,Leu7,Gln8,Glu14,His17,Asp21,Pro25,Pro28,Pro29,Asp31, Pro37]-human amylin (peptide)
peptide: {C18 diacid-γGlu}-ASHLSTLQTQRLAEFLHHSSDNFGPILPPTDVGSNTP-NH2
SMILES: CC[C@H](C)[C@H](NC(=O)[C@@H]1CCCN1C(=O)CNC(=O)[C@H](Cc1ccccc1)NC(=O)[C@H](CC(N)=O)NC(=O)[C@H](CC(=O)O)NC(=O)[C@H](CO)NC(=O)[C@H](CO)NC(=O)[C@H](Cc1c[nH]cn1)NC(=O)[C@H](Cc1c[nH]cn1)NC(=O)[C@H](CC(C)C)NC(=O)[C@H](Cc1ccccc1)NC(=O)[C@H](CCC(=O)O)NC(=O)[C@H](C)NC(=O)[C@H](CC(C)C)NC(=O)[C@H](CCCNC(=N)N)NC(=O)[C@H](CCC(N)=O)NC(=O)[C@@H](NC(=O)[C@H](CCC(N)=O)NC(=O)[C@H](CC(C)C)NC(=O)[C@@H](NC(=O)[C@H](CO)NC(=O)[C@H](CC(C)C)NC(=O)[C@H](Cc1c[nH]cn1)NC(=O)[C@H](CO)NC(=O)[C@H](C)NC(=O)CC[C@H](NC(=O)CCCCCCCCCCCCCCCCC(=O)O)C(=O)O)[C@@H](C)O)[C@@H](C)O)C(=O)N[C@@H](CC(C)C)C(=O)N1CCC[C@H]1C(=O)N1CCC[C@H]1C(=O)N[C@H](C(=O)N[C@@H](CC(=O)O)C(=O)N[C@H](C(=O)NCC(=O)N[C@@H](CO)C(=O)N[C@@H](CC(N)=O)C(=O)N[C@H](C(=O)N1CCC[C@H]1C(N)=O)[C@@H](C)O)C(C)C)[C@@H](C)O
hAmyR3 potency, EC50 (pM); CRE-luciferase reporter in BHK cells [1]: 1.91 pM
hCalcR potency, EC50 (pM); CRE-luciferase reporter in BHK cells [2]: 2.06 pM

Second part, the binder after the results:

hAmyR3 potency, EC50 (pM); CRE-luciferase reporter in BHK cells [1]: 5.71 pM
hCalcR potency, EC50 (pM); CRE-luciferase reporter in BHK cells [2]: 15.7 pM
B2: N^1-[(4S)-4-carboxy-4-[[(4S)-4-carboxy-4-(17-carboxyheptadecanoylamino)butanoyl]amino]butanoyl]-[Ala1,Ser2, His3, Leu4,Ser5,Ala7,Gln8,Glu14, His17, Pro25, … (peptide)
peptide: {C18 diacid-γGlu-γGlu}-ASHLSTAQTQRLAEFLHHFGPILPPTDVGSETY-NH2
SMILES: CC[C@H](C)[C@H](NC(=O)[C@@H]1CCCN1C(=O)CNC(=O)[C@H](Cc1ccccc1)NC(=O)[C@H](Cc1c[nH]cn1)NC(=O)[C@H](Cc1c[nH]cn1)NC(=O)[C@H](CC(C)C)NC(=O)[C@H](Cc1ccccc1)NC(=O)[C@H](CCC(=O)O)NC(=O)[C@H](C)NC(=O)[C@H](CC(C)C)NC(=O)[C@H](CCCNC(=N)N)NC(=O)[C@H](CCC(N)=O)NC(=O)[C@@H](NC(=O)[C@H](CCC(N)=O)NC(=O)[C@H](C)NC(=O)[C@@H](NC(=O)[C@H](CO)NC(=O)[C@H](CC(C)C)NC(=O)[C@H](Cc1c[nH]cn1)NC(=O)[C@H](CO)NC(=O)[C@H](C)NC(=O)CC[C@H](NC(=O)CC[C@H](NC(=O)CCCCCCCCCCCCCCCCC(=O)O)C(=O)O)C(=O)O)[C@@H](C)O)[C@@H](C)O)C(=O)N[C@@H](CC(C)C)C(=O)N1CCC[C@H]1C(=O)N1CCC[C@H]1C(=O)N[C@H](C(=O)N[C@@H](CC(=O)O)C(=O)N[C@H](C(=O)NCC(=O)N[C@@H](CO)C(=O)N[C@@H](CCC(=O)O)C(=O)N[C@H](C(=O)N[C@@H](Cc1ccc(O)cc1)C(N)=O)[C@@H](C)O)C(C)C)[C@@H](C)O

hAmyR3 potency, EC50 (pM); CRE-luciferase reporter in BHK cells [1]: 2.37 pM
hCalcR potency, EC50 (pM); CRE-luciferase reporter in BHK cells [2]: 2.07 pM
B4: N^1-[(4S)-4-carboxy-4-[[(4S)-4-carboxy-4-(17-carboxyheptadecanoylamino)butanoyl]amino]butanoyl]-[Ala1,Gly2,Ser3,Leu4,Ser5,Ala7,Gln8,Glu14,His17,Pro25,Pro28,Pro2 … (peptide)
peptide: {C18 diacid-γGlu-γGlu}-AGSLSTAQTQRLAEFLHHFGPILPPTDVGSETP-NH2
SMILES: CC[C@H](C)[C@H](NC(=O)[C@@H]1CCCN1C(=O)CNC(=O)[C@H](Cc1ccccc1)NC(=O)[C@H](Cc1c[nH]cn1)NC(=O)[C@H](Cc1c[nH]cn1)NC(=O)[C@H](CC(C)C)NC(=O)[C@H](Cc1ccccc1)NC(=O)[C@H](CCC(=O)O)NC(=O)[C@H](C)NC(=O)[C@H](CC(C)C)NC(=O)[C@H](CCCNC(=N)N)NC(=O)[C@H](CCC(N)=O)NC(=O)[C@@H](NC(=O)[C@H](CCC(N)=O)NC(=O)[C@H](C)NC(=O)[C@@H](NC(=O)[C@H](CO)NC(=O)[C@H](CC(C)C)NC(=O)[C@H](CO)NC(=O)CNC(=O)[C@H](C)NC(=O)CC[C@H](NC(=O)CC[C@H](NC(=O)CCCCCCCCCCCCCCCCC(=O)O)C(=O)O)C(=O)O)[C@@H](C)O)[C@@H](C)O)C(=O)N[C@@H](CC(C)C)C(=O)N1CCC[C@H]1C(=O)N1CCC[C@H]1C(=O)N[C@H](C(=O)N[C@@H](CC(=O)O)C(=O)N[C@H](C(=O)NCC(=O)N[C@@H](CO)C(=O)N[C@@H](CCC(=O)O)C(=O)N[C@H](C(=O)N1CCC[C@H]1C(N)=O)[C@@H](C)O)C(C)C)[C@@H](C)O

hAmyR3 potency, EC50 (pM); CRE-luciferase reporter in BHK cells [1]: 2.03 pM
hCalcR potency, EC50 (pM); CRE-luciferase reporter in BHK cells [2]: 2.13 pM
B6: N^1-[(4S)-4-carboxy-4-[[(4S)-4-carboxy-4-(17-carboxyheptadecanoylamino)butanoyl]amino]butanoyl]-[Ala1,Ser2,His3,Leu4,Ser5,Ala7,Gln8,Glu14,His17,Pro25,Pro28,Pro2 … (peptide)
peptide: {C18 diacid-γGlu-γGlu}-ASHLSTAQTQRLAEFLHHFGPILPPTDVGSETP-NH2
SMILES: CC[C@H](C)[C@H](NC(=O)[C@@H]1CCCN1C(=O)CNC(=O)[C@H](Cc1ccccc1)NC(=O)[C@H](Cc1c[nH]cn1)NC(=O)[C@H](Cc1c[nH]cn1)NC(=O)[C@H](CC(C)C)NC(=O)[C@H](Cc1ccccc1)NC(=O)[C@H](CCC(=O)O)NC(=O)[C@H](C)NC(=O)[C@H](CC(C)C)NC(=O)[C@H](CCCNC(=N)N)NC(=O)[C@H](CCC(N)=O)NC(=O)[C@@H](NC(=O)[C@H](CCC(N)=O)NC(=O)[C@H](C)NC(=O)[C@@H](NC(=O)[C@H](CO)NC(=O)[C@H](CC(C)C)NC(=O)[C@H](Cc1c[nH]cn1)NC(=O)[C@H](CO)NC(=O)[C@H](C)NC(=O)CC[C@H](NC(=O)CC[C@H](NC(=O)CCCCCCCCCCCCCCCCC(=O)O)C(=O)O)C(=O)O)[C@@H](C)O)[C@@H](C)O)C(=O)N[C@@H](CC(C)C)C(=O)N1CCC[C@H]1C(=O)N1CCC[C@H]1C(=O)N[C@H](C(=O)N[C@@H](CC(=O)O)C(=O)N[C@H](C(=O)NCC(=O)N[C@@H](CO)C(=O)N[C@@H](CCC(=O)O)C(=O)N[C@H](C(=O)N1CCC[C@H]1C(N)=O)[C@@H](C)O)C(C)C)[C@@H](C)O
